Drawing on the RNAGym collection of RNA variant scans (doi:10.7554/elife.80360), this text covers self-cleavage for 167 variants.

B1: CPEB3 Ribozyme (parent)
chain: GGGGGCCACAGCAGAAGCGUUCACGUCGCGGCCCCUGUCAGAUUCUGGUGAAUCUGCGAAUUCUGCUGU

Variants of B1 are the subject of this data set. Nature of the data set: self-cleavage, relative activity (ratio to wild type); higher = more cleavage; co-transcriptional.
Take G3U G37C: the self-cleavage is 0.035. Turning to G3U G37U, the self-cleavage turned out to be 0.0515. With G3U G37A, the self-cleavage came out at 0.0344.

In the case of G4C C24G, the self-cleavage turned out to be 0.117. With G4C C24A the figure was 0.167; with G3U A16G, 0.0682; with G3U A16U, 0.0502.

In the case of G3U A16C, the self-cleavage turned out to be 0.0591. Turning to G4A G37C, the self-cleavage was 0.149. With G4A G37U the figure was 0.154. On to G4A G37A, for which the self-cleavage came to 0.179. With G4A U62C, the self-cleavage is 0.587. Regarding G4C C63U, the self-cleavage was found to be 0.584. For G4C C63A, the self-cleavage worked out at 0.217. With G3U G41C the figure was 0.0828.

In the case of G3U G41U, the self-cleavage worked out at 0.0372. As for G3U G41A, the self-cleavage came to 0.0442.

Consider G4A U26C, for which the self-cleavage was determined as 0.827. Take G3U G58A: the self-cleavage came to 0.0734.

On to G3U G58C, for which the self-cleavage was 0.0675.

For G4A C32A, the self-cleavage was 0.216. The value for G3U U64C was 0.132; that for G3U U64A was 0.128; that for G3U U64G was 0.138.

With G4C C6A, the self-cleavage stood at 0.0438.

G4C C6G: the self-cleavage came to 0.0309. In the case of G3U G56U, the self-cleavage came out at 0.109. The value for G3U G56C was 0.0723. With G3U C24U the figure was 0.0674; with G3U C24A, 0.0286; with G3U C24G, 0.0481.

On to G4C A10U, for which the self-cleavage stood at 0.802. With G4A G47C the figure was 0.901; with G4A G47A, 0.895; with G4A A16U, 0.459. Turning to G4A A16G, the self-cleavage worked out at 0.737. As for G3U C57U, the self-cleavage was 0.0383. For the variant G3U C57A, the self-cleavage amounted to 0.0577.

Regarding G3C U55A, the self-cleavage was 0.0482. In the case of G3C U55C, the self-cleavage was 0.0498.

G3C U55G: the self-cleavage was 0.0373. With G3U C6U the figure was 0.0423; with G3U C6G, 0.0291. In the case of G4A U53C, the self-cleavage was 0.617. As to G3U G5C, the self-cleavage came to 0.0208. In the case of G3U G5A, the self-cleavage is 0.0231.

As for G4A A42C, the self-cleavage came to 0.473. The value for G4A A42G was 0.806; that for G4C C18A was 0.0472.

In the case of G4C C18G, the self-cleavage was determined as 0.0437.

Take G4C C18U: the self-cleavage was found to be 0.129. The value for G4C A16G was 0.122; that for G3U C7A was 0.0696. The value for G3U C7U was 0.0677.

With G3U U69C, the self-cleavage is 0.46. With G3U U69G the figure was 0.283. The value for G3U U69A was 0.301; that for G4A C57A was 0.245; that for G4A C57G was 0.217. Turning to G4A C57U, the self-cleavage was 0.223. Take G3U C27G: the self-cleavage was determined as 0.0583. With G3U C27U the figure was 0.0361. The value for G4C C27U was 0.0743; that for G4A G17C was 0.0965; that for G4A G17A was 0.175. The value for G4A C22U was 0.157; that for G4A C22G was 0.165; that for G4A U21G was 0.253. As to G4A U21C, the self-cleavage is 0.465. With G4C C32U the figure was 0.198; with G4A C33G, 0.68. The value for G4A U43G was 0.511. G4A U43C: the self-cleavage worked out at 0.651. The value for G4A U43A was 0.683; that for G4A C24A was 0.295; that for G4A C24G was 0.177. With G4A C24U the figure was 0.352; with G3C U61G, 0.0927; with G4A G31U, 0.159. With G4A G31C the figure was 0.148; with G3U U67A, 0.406. Regarding G4C C29A, the self-cleavage is 0.0787.

With G4C C29G, the self-cleavage turned out to be 0.0753. The value for G3U C34U was 0.381. As to G3U C34A, the self-cleavage was 0.687.

On to G3U G28C, for which the self-cleavage came to 0.0382. In the case of G3U G28U, the self-cleavage is 0.0309.

As for G4C C54U, the self-cleavage turned out to be 0.562. The value for G4C C54A was 0.225; that for G4C C54G was 0.175. Regarding G4C C9A, the self-cleavage is 0.905. With G4C C9G the figure was 0.899; with G4C C9U, 0.937. As for G3U C9G, the self-cleavage came out at 0.446.

For the variant G4A C45A, the self-cleavage was 0.808. The value for G4A C45U was 0.909; that for G4C A60U was 0.174.

For G3U A13C, the self-cleavage was determined as 0.0166.

As to G3U A13U, the self-cleavage is 0.105. With G3U A13G the figure was 0.181; with G4A C6A, 0.0589; with G4C A15C, 0.145.

Regarding G4C A15G, the self-cleavage was found to be 0.496. Turning to G3U U36C, the self-cleavage was 0.122. With G3U U36G, the self-cleavage amounted to 0.135.

On to G3U U49A, for which the self-cleavage was 0.201. Regarding G3U U49C, the self-cleavage worked out at 0.176. The value for G4A G28U was 0.127; that for G4A G28C was 0.162. As for G4A C66A, the self-cleavage is 0.743. The value for G4A C66U was 0.852; that for G4C A51U was 0.493.

Turning to G4C A51G, the self-cleavage worked out at 0.567.

As for G4C A51C, the self-cleavage came to 0.381. With G4C A8G the figure was 0.545. Regarding G4C A8C, the self-cleavage came to 0.578.

In the case of G4C A8U, the self-cleavage was 0.617. The value for G4C C66A was 0.396; that for G4C C66U was 0.678. For the variant G4C C66G, the self-cleavage amounted to 0.229. The value for G3C U62G was 0.0946; that for G3C U62C was 0.0572; that for G4A U20A was 0.23. The value for G4A U20G was 0.0767; that for G4A C18U was 0.481.

Consider G4A C18A, for which the self-cleavage was determined as 0.147. For G4A C18G, the self-cleavage was determined as 0.158. For G3U C39A, the self-cleavage amounted to 0.0589. Consider G3U C39G, for which the self-cleavage was found to be 0.0714. For G3U C39U, the self-cleavage came to 0.043.

For G3U C12A, the self-cleavage worked out at 0.0925. For G4A U69G, the self-cleavage came to 0.985.

Take G4A U69A: the self-cleavage came out at 0.912. For G4C A40C, the self-cleavage was 0.202. For G4C A40U, the self-cleavage turned out to be 0.228.

For G4C A40G, the self-cleavage was found to be 0.526. Take G4C C12A: the self-cleavage turned out to be 0.166. Regarding G4C C12G, the self-cleavage came out at 0.148. Consider G4C C12U, for which the self-cleavage amounted to 0.608. With G3U U43C the figure was 0.0372. The value for G3U U43A was 0.0999; that for G4A C35G was 0.162; that for G4A C35A was 0.175. For the variant G3U G50C, the self-cleavage stood at 0.145. Consider G4A G65A, for which the self-cleavage is 0.735. For G4A G65C, the self-cleavage was determined as 0.418.

As for G4A G65U, the self-cleavage was determined as 0.406. With G3U U46G the figure was 0.161; with G3U U46C, 0.105. G4A U36C: the self-cleavage was 0.792. As to G4A U36G, the self-cleavage came to 0.424. Regarding G4C C34G, the self-cleavage is 0.0856. Take G3C U69C: the self-cleavage came to 0.495. With G3C U69G the figure was 0.222; with G3U U38G, 0.0509. With G3U U38C the figure was 0.0341; with G4A C9A, 1.03; with G4A C9U, 0.953. The value for G4A C9G was 1.05; that for G4A A60G was 0.475; that for G4A A60C was 0.217. As to G4A A60U, the self-cleavage is 0.264. Turning to G3U U61C, the self-cleavage amounted to 0.0446. The value for G3U U61A was 0.0525; that for G4A C12G was 0.5. With G4A C12A the figure was 0.477; with G4A A52U, 0.882.
